According to patent US20250230251A1 (Bristol-Myers Squibb, published 2025):
Read-outs that look alike come from different tables or passages of the source.

Key:
huIL-18Rβ-HisAvi [1] = target: T1, huIL-18Rβ-HisAvi (human, UniProt O95256 20-356, biotinylated in the Octet blocking assay); experiment: SPR T200, pH 7.4; sample stored at pH 6, 4 w 40C
T1 construct: Soluble analyte in all SPR runs; captured on streptavidin sensors in the Octet assay; also called human IL-18Rβ; human IL-18Rβ-Avi-His
T1 sequence: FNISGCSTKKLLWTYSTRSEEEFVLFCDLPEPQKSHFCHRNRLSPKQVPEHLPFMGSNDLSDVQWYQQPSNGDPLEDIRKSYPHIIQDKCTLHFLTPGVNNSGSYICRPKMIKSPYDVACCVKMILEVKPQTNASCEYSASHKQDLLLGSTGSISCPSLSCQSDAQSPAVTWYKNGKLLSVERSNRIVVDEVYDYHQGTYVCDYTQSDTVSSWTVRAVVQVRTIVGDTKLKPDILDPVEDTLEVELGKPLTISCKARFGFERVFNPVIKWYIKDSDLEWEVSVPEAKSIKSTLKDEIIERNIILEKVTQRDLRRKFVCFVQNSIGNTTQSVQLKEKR

[2] = target: the molecule itself; experiment: clone self-interaction BLI, antibody on AHQ sensor against 1 µM of the same antibody
human IL-18Rβ on cells [3] = target: T2, human IL-18Rβ on cells (human, UniProt O95256 20-599); experiment: cell-based or functional assay
T2 sequence: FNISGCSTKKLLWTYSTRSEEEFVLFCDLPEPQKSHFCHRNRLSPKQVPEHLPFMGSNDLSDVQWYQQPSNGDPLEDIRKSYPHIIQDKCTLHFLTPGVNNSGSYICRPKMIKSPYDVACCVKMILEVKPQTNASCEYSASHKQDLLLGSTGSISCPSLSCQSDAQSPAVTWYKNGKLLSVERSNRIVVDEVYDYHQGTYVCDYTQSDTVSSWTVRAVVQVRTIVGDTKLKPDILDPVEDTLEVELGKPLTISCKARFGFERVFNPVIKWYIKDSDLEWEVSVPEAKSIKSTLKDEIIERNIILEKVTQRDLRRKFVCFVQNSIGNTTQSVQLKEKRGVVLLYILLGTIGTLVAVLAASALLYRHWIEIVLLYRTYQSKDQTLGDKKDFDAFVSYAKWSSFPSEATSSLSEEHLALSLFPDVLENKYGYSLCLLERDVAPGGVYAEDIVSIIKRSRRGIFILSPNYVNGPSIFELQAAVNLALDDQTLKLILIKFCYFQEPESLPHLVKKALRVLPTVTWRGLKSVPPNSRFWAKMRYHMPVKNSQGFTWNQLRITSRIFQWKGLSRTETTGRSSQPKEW

huIL-18Rβ-HisAvi [4] = target: T1, huIL-18Rβ-HisAvi; experiment: SPR Biacore T200, mAb captured on anti-human Fc, huIL-18Rβ-HisAvi as analyte, PBST pH 6.0, 37 °C, 1:1 Binding fit
huIL-18Rβ-HisAvi [5] = target: T1, huIL-18Rβ-HisAvi; experiment: SPR T200, pH 7.4; sample stored at pH 8, T0
huIL-18Rβ-HisAvi [6] = target: T1, huIL-18Rβ-HisAvi; experiment: SPR T200, mAb on anti-hFc, 37C, pH 5
huIL-18Rβ-HisAvi [7] = target: T1, huIL-18Rβ-HisAvi; experiment: SPR T200, pH 7.4; sample stored at pH 8, 4 w 40C
huIL-18Rβ-HisAvi [8] = target: T1, huIL-18Rβ-HisAvi; experiment: SPR T200, mAb on anti-hFc, 37C, pH 7.4; sample stored at pH 6, T0
huIL-18Rβ-HisAvi [9] = target: T1, huIL-18Rβ-HisAvi; experiment: SPR screen, 1:1 fit
huIL-18Rβ-HisAvi [10] = target: T1, huIL-18Rβ-HisAvi; experiment: SPR Biacore T200, mAb captured on anti-human Fc, huIL-18Rβ-HisAvi as analyte, PBST pH 5.5, 37 °C, 1:1 Binding fit
huIL-18Rβ-HisAvi [11] = target: T1, huIL-18Rβ-HisAvi; experiment: SPR T200, mAb on anti-hFc, 37C, pH 7.4
human IL-18Rβ on cells [12] = target: T2, human IL-18Rβ on cells; experiment: cell-based or functional assay; remark: listed apart in the source
huIL-18Rβ-HisAvi [13] = target: T1, huIL-18Rβ-HisAvi; experiment: SPR T200, pH 5 against pH 7.4
huIL-18Rβ-HisAvi [14] = target: T1, huIL-18Rβ-HisAvi; experiment: SPR T200, mAb on anti-hFc, 37C, pH 6
huIL-18Rβ-HisAvi [15] = target: T1, huIL-18Rβ-HisAvi; experiment: SPR T200, pH 7.4; sample stored at pH 8, 4 w 4C
human IL-18Rβ on cells [16] = target: T2, human IL-18Rβ on cells; experiment: cell-based or functional assay; remark: listed apart in the source
huIL-18Rβ-HisAvi [17] = target: T1, huIL-18Rβ-HisAvi; experiment: SPR T200, mAb on anti-hFc, 37C, pH 7.4; remark: listed apart in the source
huIL-18Rβ-HisAvi [18] = target: T1, huIL-18Rβ-HisAvi; experiment: SPR T200, pH 7.4; sample stored at pH 6, 4 w 4C

B1: P8 (antibody, human IgG1, kappa)
heavy: QVQLVQSGAEVKKPGASVRVSCKASGYTFTSYYMHWVRQAPGQGLEWMGIINPRGGYTTYAQKFQGRVTMTRDTSTSTVYMELSSLRSEDTAVYYCAKEGRVSPTDYYGMDVWGQGTTVTVSSASTKGPSVFPLAPSSKSTSGGTAALGCLVKDYFPEPVTVSWNSGALTSGVHTFPAVLQSSGLYSLSSVVTVPSSSLGTQTYICNVNHKPSNTKVDKRVEPKSCDKTHTCPPCPAPEAEGAPSVFLFPPKPKDTLMISRTPEVTCVVVDVSHEDPEVKFNWYVDGVEVHNAKTKPREEQYNSTYRVVSVLTVLHQDWLNGKEYKCKVSNKALPAPIEKTISKAKGQPREPQVYTLPPSREEMTKNQVSLTCLVKGFYPSDIAVEWESNGQPENNYKTTPPVLDSDGSFFLYSKLTVDKSRWQQGNVFSCSVMHEALHNHYTQKSLSLSPG
light: not shown
notes: Human IgG
Kd (huIL-18Rβ-HisAvi [1]): 0.6 nM
koff (huIL-18Rβ-HisAvi [1]): 0.00044 s⁻¹
kon (huIL-18Rβ-HisAvi [1]): 730000 M⁻¹ s⁻¹
Average CSI-BLI ΔResponse [2]: -0.01 nm
IC50, IL-18-induced IFNγ release, KG-1 cells (human IL-18Rβ on cells [3]): 0.3 nM
Kd (huIL-18Rβ-HisAvi [4]): 1.24 nM
koff (huIL-18Rβ-HisAvi [4]): 0.000504 s⁻¹
kon (huIL-18Rβ-HisAvi [4]): 405000 M⁻¹ s⁻¹
Kd (huIL-18Rβ-HisAvi [5]): 0.85 nM
koff (huIL-18Rβ-HisAvi [5]): 0.00046 s⁻¹
kon (huIL-18Rβ-HisAvi [5]): 540000 M⁻¹ s⁻¹
Kd (huIL-18Rβ-HisAvi [6]): 0.41 nM
koff (huIL-18Rβ-HisAvi [6]): 0.00022 s⁻¹
kon (huIL-18Rβ-HisAvi [6]): 530000 M⁻¹ s⁻¹
Kd (huIL-18Rβ-HisAvi [7]): 0.78 nM
koff (huIL-18Rβ-HisAvi [7]): 0.00046 s⁻¹
kon (huIL-18Rβ-HisAvi [7]): 590000 M⁻¹ s⁻¹
Kd (huIL-18Rβ-HisAvi [8]): 0.83 nM
koff (huIL-18Rβ-HisAvi [8]): 0.00047 s⁻¹
kon (huIL-18Rβ-HisAvi [8]): 570000 M⁻¹ s⁻¹
Kd (huIL-18Rβ-HisAvi [9]): 0.094 nM
Kd (huIL-18Rβ-HisAvi [10]): 1.08 nM
koff (huIL-18Rβ-HisAvi [10]): 0.000511 s⁻¹
kon (huIL-18Rβ-HisAvi [10]): 472000 M⁻¹ s⁻¹
Kd (huIL-18Rβ-HisAvi [11]): 1.2 nM
koff (huIL-18Rβ-HisAvi [11]): 0.00038 s⁻¹
kon (huIL-18Rβ-HisAvi [11]): 310000 M⁻¹ s⁻¹
IC50, LPS+IL-12 dependent IFNg production, human whole blood (human IL-18Rβ on cells [12]): 0.3 nM
y-max, LPS+IL-12 dependent IFNg production, human whole blood (human IL-18Rβ on cells [12]): 98%
KD ratio (KD pH 5/KD pH 7) (huIL-18Rβ-HisAvi [13]): 0.33
kd ratio (kd pH 5/kd pH 7) (huIL-18Rβ-HisAvi [13]): 0.57
Kd (huIL-18Rβ-HisAvi [14]): 0.18 nM
koff (huIL-18Rβ-HisAvi [14]): 0.00024 s⁻¹
kon (huIL-18Rβ-HisAvi [14]): 1.4e+06 M⁻¹ s⁻¹
Kd (huIL-18Rβ-HisAvi [15]): 0.81 nM
koff (huIL-18Rβ-HisAvi [15]): 0.00043 s⁻¹
kon (huIL-18Rβ-HisAvi [15]): 520000 M⁻¹ s⁻¹
IC50, LPS+IL-12 dependent IFNg production, human whole blood (human IL-18Rβ on cells [16]): 1.12 nM
Kd (huIL-18Rβ-HisAvi [17]): 0.96 nM
koff (huIL-18Rβ-HisAvi [17]): 0.0005 s⁻¹
kon (huIL-18Rβ-HisAvi [17]): 520000 M⁻¹ s⁻¹
Kd (huIL-18Rβ-HisAvi [18]): 0.8 nM
koff (huIL-18Rβ-HisAvi [18]): 0.00045 s⁻¹
kon (huIL-18Rβ-HisAvi [18]): 570000 M⁻¹ s⁻¹
